Test results published in US20090060915A1.

Assays:
Assay in all cases: cell-based or functional assay
[1] = molecular target: endogenous angiomotin of bovine capillary endothelial (BCE) cells (p80- and p130-isoforms) (bovine)
[2] = molecular target: p80-angiomotin (Homo sapiens (Human)) (UniProt Q4VCS5)
[3] = molecular target: p130-angiomotin (Homo sapiens (Human)) (UniProt Q4VCS5)

decrease in bFGF-stimulated migration of hTERT+-BCE cells, migration chamber assay [1]: 85% | decrease in bFGF-stimulated migration of MAE cells expressing p80-angiomotin, Boyden chamber, angiostatin 5 ug/ml [2]: 175% | decrease in motility of CHO cells expressing p80-angiomotin, Boyden chamber [2]: 50% | invasion of Matrigel by human cytotrophoblasts, angiostatin 5 ug/ml [2]: 3 fold | decrease in bFGF-stimulated migration of MAE cells expressing p130-angiomotin, Boyden chamber, angiostatin 5 ug/ml [3]: 160% | decrease in motility of CHO cells expressing p130-angiomotin, Boyden chamber [3]: 50% | invasion of Matrigel by human cytotrophoblasts, angiostatin 5 ug/ml [3]: 3 fold
Substance: Human angiostatin (kringle 1-4) (from UniProt P00747 99-459) (ligand)
